Residue numbers refer to the chain shown, from its start.
Assays:
CD73-ND-his [1] = biological target: T1, CD73-ND-his (human, UniProt P21589 27-317); assay: ELISA, high plateau value (OD 450 nm)
T1 construct: Biotinylated and captured on streptavidin in the ELISA
T1 sequence: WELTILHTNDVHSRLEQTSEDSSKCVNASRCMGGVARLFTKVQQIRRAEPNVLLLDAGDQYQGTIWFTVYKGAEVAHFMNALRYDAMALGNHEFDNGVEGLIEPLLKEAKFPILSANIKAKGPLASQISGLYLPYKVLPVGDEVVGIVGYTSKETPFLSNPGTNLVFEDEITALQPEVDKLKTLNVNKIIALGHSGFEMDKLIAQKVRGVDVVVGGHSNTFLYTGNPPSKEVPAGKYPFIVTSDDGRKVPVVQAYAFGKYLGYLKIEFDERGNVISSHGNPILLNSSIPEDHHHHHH
Description: (§1) The ELISA plates were coated with SA protein diluted to 1.5 μg/mL in coating buffer (50 mM carbonate coating buffer, pH 9.6) and incubated overnight at 4° C. The supernatant was discarded, and the plates were washed three times with PBST. Then, 5% skimmed milk powder prepared with PBS was added for blocking and the plates were incubated for 2 h at 37° C. After washing the plates once with PBST, CD73-biotin protein (prepared by biotinylating CD73-His protein according to the EZ-Link NHS-Biotin Reagent instructions) was diluted to 0.5 μg/mL and added at 100 μL/well for incubation at room temperature for 1 h. The plates were washed three times with PBST, and the prepared murine-derived monoclonal antibodies against human CD73 were serially diluted with 1% BSA buffer prepared with PBST and added to the ELISA plates at 100 μl/well. The plates were incubated at 37° C. for 1 h. After washing the plates three times with PBST, HRP-labeled goat anti-mouse IgG secondary antibody was added and the plates were incubated for 30 min at 37° C. After washing the plates three times with PBST, the residual droplets were patted dry on absorbent paper as much as possible. Then, 100 μl of TMB color developing solution was added to each well, and the plates were incubated in the dark at room temperature for 5 min for color development. Subsequently, 50 μl of 2M H₂SO₄ stop solution was added to each well to terminate the substrate reaction. The OD values were read at 450 nm using a multimode microplate reader to analyze the binding ability of the tested antibodies to the target antigen human CD73-His.
(§2) Referring to the experimental method in Example 3, the affinity of 48A11-HuV33 for various mutant proteins of CD73-ND was determined. The SA protein was diluted to 1 μg/mL for coating the ELISA plates, and the biotinylated CD73 protein (CD73-biotin) was used at a concentration of 0.1 μg/mL.

CD73-ND-V140A [2] = biological target: T2, CD73-ND-V140A (human, UniProt P21589 27-317); assay: ELISA, high plateau value (OD 450 nm)
T2 construct: Alanine mutant of CD73-ND
T2 sequence: T1 sequence with V140A
Description: as §1, §2

CD73-ND-P139A [3] = biological target: T3, CD73-ND-P139A (human, UniProt P21589 27-317); assay: ELISA, high plateau value (OD 450 nm)
T3 construct: Alanine mutant of CD73-ND
T3 sequence: T1 sequence with P139A
Description: as §1, §2

CD73-ND-D142A [4] = biological target: T4, CD73-ND-D142A (human, UniProt P21589 27-317); assay: ELISA, high plateau value (OD 450 nm)
T4 construct: Alanine mutant of CD73-ND
T4 sequence: T1 sequence with D142A
Description: as §1, §2

CD73-ND-L184A [5] = biological target: T5, CD73-ND-L184A (human, UniProt P21589 27-317); assay: ELISA, high plateau value (OD 450 nm)
T5 construct: Alanine mutant of CD73-ND
T5 sequence: T1 sequence with L184A
Description: as §1, §2

CD73-ND-his [6] = biological target: T1, CD73-ND-his; assay: ELISA; decline multiple of Top against CD73-ND
Description: as §1, §2

CD73-ND-V140A [7] = biological target: T2, CD73-ND-V140A; assay: ELISA; decline multiple of Top against CD73-ND
Description: as §1, §2

CD73-ND-P139A [8] = biological target: T3, CD73-ND-P139A; assay: ELISA; decline multiple of Top against CD73-ND
Description: as §1, §2

CD73-ND-D142A [9] = biological target: T4, CD73-ND-D142A; assay: ELISA; decline multiple of Top against CD73-ND
Description: as §1, §2

CD73-ND-L184A [10] = biological target: T5, CD73-ND-L184A; assay: ELISA; decline multiple of Top against CD73-ND
Description: as §1, §2

B1: 48A11-HuV33 (antibody, human IgG4, V domains shown)
VH: QVQLVQSGAEVKKPGASVKVSCKASGYTFTSYWMHWVRQAPGQGLEWIGEINPSIGRTNYNEKFKSRVTLTRDTSTSTAYMELSSLRSEDTAVYYCARRVYGTMDYWGQGTLVTVSS
VL: DIQMTQSPSSLSASVGDRVTITCKASQDINSYLSWFQQKPGKSPKLLIYRANIWVDGVPSRFSGSGSGQDYTFTISSLQPEDIATYYCLQYDELYTFGQGTKVEIK
notes: Humanized
B1 gave a Top (CD73-ND-his [1]) of 2, a Top (CD73-ND-V140A [2]) of 2.05 and a Top (CD73-ND-P139A [3]) of 0.871. For the same binder, the Top (CD73-ND-D142A [4]) was 1.84, the Top (CD73-ND-L184A [5]) was 1.7 and the “Ratio(Top)” value (CD73-ND-his [6]) was 1 fold. For the same binder, the “Ratio(Top)” value (CD73-ND-V140A [7]) was 1 fold, the “Ratio(Top)” value (CD73-ND-P139A [8]) was 2.3 fold and the “Ratio(Top)” value (CD73-ND-D142A [9]) was 1.1 fold. For the same binder, the “Ratio(Top)” value (CD73-ND-L184A [10]) was 1.2 fold.
